*1 amine or outer side, *2 acyl side, *3 side chain or, on linkers, in order; H or OH if unused. Where no end group is shown, it is not given here. Side-chain parts run from the residue outwards. [ ]: non-standard residue; d: D form. The star is where a group is joined. C20 diacid = O=C(O)CCCCCCCCCCCCCCCCCCC(=O)*; C18 diacid = O=C(O)CCCCCCCCCCCCCCCCC(=O)*; γGlu = O=C(O)[C@H](CCC(=O)[*:2])N[*:1]; NMeY = CN[C@@H](Cc1ccc(O)cc1)C(=O)O; AEEA = NCCOCCOCC(=O)O; Aib = CC(C)(N)C(=O)O
T1: human GIP receptor (human, UniProt P48546 22-466)
T1 sequence (looked up): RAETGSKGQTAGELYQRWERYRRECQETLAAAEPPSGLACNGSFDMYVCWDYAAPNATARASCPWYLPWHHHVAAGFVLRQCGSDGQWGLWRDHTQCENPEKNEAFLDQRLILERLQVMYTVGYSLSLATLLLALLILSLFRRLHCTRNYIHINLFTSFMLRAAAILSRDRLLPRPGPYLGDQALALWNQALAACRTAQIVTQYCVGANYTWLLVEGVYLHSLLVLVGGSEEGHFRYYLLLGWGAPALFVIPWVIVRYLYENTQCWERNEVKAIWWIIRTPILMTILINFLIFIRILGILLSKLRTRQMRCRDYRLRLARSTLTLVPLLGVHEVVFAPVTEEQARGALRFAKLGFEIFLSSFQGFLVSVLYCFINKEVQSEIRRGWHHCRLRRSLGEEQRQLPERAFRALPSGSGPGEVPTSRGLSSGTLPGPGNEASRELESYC


Legend:
human GIP receptor = molecular target: T1, human GIP receptor; assay: cell-based or functional assay
human GLP-1 receptor = human GLP-1 receptor (human, UniProt P43220 24-463); assay: cell-based or functional assay

Binder	EC50 hGIPR 0% HSA, cAMP in HEK-293 cells (human GIP receptor) [pM]	EC50 hGIPR 0.1% HSA, cAMP in HEK-293 cells (human GIP receptor) [pM]	EC50 hGLP-1R 0% HSA, cAMP in HEK-293 cells (human GLP-1 receptor) [pM]
Y[Aib]EGTFISDLSI[Aib]K([AEEA-AEEA-AEEA-γGlu-C18 diacid])DRIHQEEFIEWLLAQGPSSGAPPPS-NH2 (N-terminus assumed; SMILES CC[C@H](C)[C@H](NC(=O)[C@H](Cc1ccccc1)NC(=O)[C@H](CCC(=O)O)NC(=O)[C@H](CCC(=O)O)NC(=O)[C@H](CCC(N)=O)NC(=O)[C@H](Cc1c[nH]cn1)NC(=O)[C@@H](NC(=O)[C@H](CCCNC(=N)N)NC(=O)[C@H](CC(=O)O)NC(=O)[C@H](CCCCNC(=O)COCCOCCNC(=O)COCCOCCNC(=O)COCCOCCNC(=O)CC[C@H](NC(=O)CCCCCCCCCCCCCCCCC(=O)O)C(=O)O)NC(=O)C(C)(C)NC(=O)[C@@H](NC(=O)[C@H](CO)NC(=O)[C@H](CC(C)C)NC(=O)[C@H](CC(=O)O)NC(=O)[C@H](CO)NC(=O)[C@@H](NC(=O)[C@H](Cc1ccccc1)NC(=O)[C@@H](NC(=O)CNC(=O)[C@H](CCC(=O)O)NC(=O)C(C)(C)NC(=O)[C@@H](N)Cc1ccc(O)cc1)[C@@H](C)O)[C@@H](C)CC)[C@@H](C)CC)[C@@H](C)CC)C(=O)N[C@@H](CCC(=O)O)C(=O)N[C@@H](Cc1c[nH]c2ccccc12)C(=O)N[C@@H](CC(C)C)C(=O)N[C@@H](CC(C)C)C(=O)N[C@@H](C)C(=O)N[C@@H](CCC(N)=O)C(=O)NCC(=O)N1CCC[C@H]1C(=O)N[C@@H](CO)C(=O)N[C@@H](CO)C(=O)NCC(=O)N[C@@H](C)C(=O)N1CCC[C@H]1C(=O)N1CCC[C@H]1C(=O)N1CCC[C@H]1C(=O)N[C@@H](CO)C(N)=O) [SEQ ID NO: 12]	0.26	2.38	> 10000
[NMeY][Aib]EGTFISDLSI[Aib]K([AEEA-AEEA-γGlu-C18 diacid])DRIHQEEFIEWLLAQGPSSGAPPPS-NH2 (N-terminus assumed; SMILES CC[C@H](C)[C@H](NC(=O)[C@H](Cc1ccccc1)NC(=O)[C@H](CCC(=O)O)NC(=O)[C@H](CCC(=O)O)NC(=O)[C@H](CCC(N)=O)NC(=O)[C@H](Cc1c[nH]cn1)NC(=O)[C@@H](NC(=O)[C@H](CCCNC(=N)N)NC(=O)[C@H](CC(=O)O)NC(=O)[C@H](CCCCNC(=O)COCCOCCNC(=O)COCCOCCNC(=O)CC[C@H](NC(=O)CCCCCCCCCCCCCCCCC(=O)O)C(=O)O)NC(=O)C(C)(C)NC(=O)[C@@H](NC(=O)[C@H](CO)NC(=O)[C@H](CC(C)C)NC(=O)[C@H](CC(=O)O)NC(=O)[C@H](CO)NC(=O)[C@@H](NC(=O)[C@H](Cc1ccccc1)NC(=O)[C@@H](NC(=O)CNC(=O)[C@H](CCC(=O)O)NC(=O)C(C)(C)NC(=O)[C@H](Cc1ccc(O)cc1)NC)[C@@H](C)O)[C@@H](C)CC)[C@@H](C)CC)[C@@H](C)CC)C(=O)N[C@@H](CCC(=O)O)C(=O)N[C@@H](Cc1c[nH]c2ccccc12)C(=O)N[C@@H](CC(C)C)C(=O)N[C@@H](CC(C)C)C(=O)N[C@@H](C)C(=O)N[C@@H](CCC(N)=O)C(=O)NCC(=O)N1CCC[C@H]1C(=O)N[C@@H](CO)C(=O)N[C@@H](CO)C(=O)NCC(=O)N[C@@H](C)C(=O)N1CCC[C@H]1C(=O)N1CCC[C@H]1C(=O)N1CCC[C@H]1C(=O)N[C@@H](CO)C(N)=O) [SEQ ID NO: 13]	0.2	1.76	> 10000
Y[Aib]EGTFISDLSI[Aib]K([AEEA-AEEA-γGlu-γGlu-C18 diacid])DRIHQEEFIEWLLAQGPSSGAPPPS-NH2 (N-terminus assumed; SMILES CC[C@H](C)[C@H](NC(=O)[C@H](Cc1ccccc1)NC(=O)[C@H](CCC(=O)O)NC(=O)[C@H](CCC(=O)O)NC(=O)[C@H](CCC(N)=O)NC(=O)[C@H](Cc1c[nH]cn1)NC(=O)[C@@H](NC(=O)[C@H](CCCNC(=N)N)NC(=O)[C@H](CC(=O)O)NC(=O)[C@H](CCCCNC(=O)COCCOCCNC(=O)COCCOCCNC(=O)CC[C@H](NC(=O)CC[C@H](NC(=O)CCCCCCCCCCCCCCCCC(=O)O)C(=O)O)C(=O)O)NC(=O)C(C)(C)NC(=O)[C@@H](NC(=O)[C@H](CO)NC(=O)[C@H](CC(C)C)NC(=O)[C@H](CC(=O)O)NC(=O)[C@H](CO)NC(=O)[C@@H](NC(=O)[C@H](Cc1ccccc1)NC(=O)[C@@H](NC(=O)CNC(=O)[C@H](CCC(=O)O)NC(=O)C(C)(C)NC(=O)[C@@H](N)Cc1ccc(O)cc1)[C@@H](C)O)[C@@H](C)CC)[C@@H](C)CC)[C@@H](C)CC)C(=O)N[C@@H](CCC(=O)O)C(=O)N[C@@H](Cc1c[nH]c2ccccc12)C(=O)N[C@@H](CC(C)C)C(=O)N[C@@H](CC(C)C)C(=O)N[C@@H](C)C(=O)N[C@@H](CCC(N)=O)C(=O)NCC(=O)N1CCC[C@H]1C(=O)N[C@@H](CO)C(=O)N[C@@H](CO)C(=O)NCC(=O)N[C@@H](C)C(=O)N1CCC[C@H]1C(=O)N1CCC[C@H]1C(=O)N1CCC[C@H]1C(=O)N[C@@H](CO)C(N)=O) [SEQ ID NO: 14]	0.23	1.56	> 10000
Y[Aib]EGTFISDLSI[Aib]K([AEEA-AEEA-γGlu-γGlu-C20 diacid])DRIHQEEFIEWLLAQGPSSGAPPPS-NH2 (N-terminus assumed; SMILES CC[C@H](C)[C@H](NC(=O)[C@H](Cc1ccccc1)NC(=O)[C@H](CCC(=O)O)NC(=O)[C@H](CCC(=O)O)NC(=O)[C@H](CCC(N)=O)NC(=O)[C@H](Cc1c[nH]cn1)NC(=O)[C@@H](NC(=O)[C@H](CCCNC(=N)N)NC(=O)[C@H](CC(=O)O)NC(=O)[C@H](CCCCNC(=O)COCCOCCNC(=O)COCCOCCNC(=O)CC[C@H](NC(=O)CC[C@H](NC(=O)CCCCCCCCCCCCCCCCCCC(=O)O)C(=O)O)C(=O)O)NC(=O)C(C)(C)NC(=O)[C@@H](NC(=O)[C@H](CO)NC(=O)[C@H](CC(C)C)NC(=O)[C@H](CC(=O)O)NC(=O)[C@H](CO)NC(=O)[C@@H](NC(=O)[C@H](Cc1ccccc1)NC(=O)[C@@H](NC(=O)CNC(=O)[C@H](CCC(=O)O)NC(=O)C(C)(C)NC(=O)[C@@H](N)Cc1ccc(O)cc1)[C@@H](C)O)[C@@H](C)CC)[C@@H](C)CC)[C@@H](C)CC)C(=O)N[C@@H](CCC(=O)O)C(=O)N[C@@H](Cc1c[nH]c2ccccc12)C(=O)N[C@@H](CC(C)C)C(=O)N[C@@H](CC(C)C)C(=O)N[C@@H](C)C(=O)N[C@@H](CCC(N)=O)C(=O)NCC(=O)N1CCC[C@H]1C(=O)N[C@@H](CO)C(=O)N[C@@H](CO)C(=O)NCC(=O)N[C@@H](C)C(=O)N1CCC[C@H]1C(=O)N1CCC[C@H]1C(=O)N1CCC[C@H]1C(=O)N[C@@H](CO)C(N)=O) [SEQ ID NO: 15]	0.34	7.65	> 10000
